Laboratory results taken from publication PMC6128619, “Allosteric Activation Shifts the Rate-Limiting Step in a Short-Form ATP Phosphoribosyltransferase” (Biochemistry, 2018).
Read-outs that look alike come from different tables or passages of the source.

T1: PaHisGS (short-form ATP phosphoribosyltransferase catalytic subunit) (Psychrobacter arcticus, UniProt Q4FQF7)
T1 construct: gene hisG
T1 sequence (Q4FQF7 1-231): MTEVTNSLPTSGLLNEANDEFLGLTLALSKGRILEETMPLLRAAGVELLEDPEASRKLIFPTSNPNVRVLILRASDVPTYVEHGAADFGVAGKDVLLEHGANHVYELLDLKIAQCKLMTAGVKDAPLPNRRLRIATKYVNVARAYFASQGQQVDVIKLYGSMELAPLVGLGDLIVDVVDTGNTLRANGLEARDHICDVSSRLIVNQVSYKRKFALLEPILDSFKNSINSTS


Legend:
[1] = molecular target: T1, PaHisGS (short-form ATP phosphoribosyltransferase catalytic subunit); assay: […] NMR of product formation and steady-state kinetics (alternative substrate, with PRPP); assay type: biochemical
[2] = molecular target: T1, PaHisGS (short-form ATP phosphoribosyltransferase catalytic subunit); assay: steady-state inhibition kinetics, absorbance at […] nm (IC50 […]; Ki […] vs PRPP, […] vs ATP); assay type: biochemical
[3] = molecular target: T1, PaHisGS (short-form ATP phosphoribosyltransferase catalytic subunit); assay: ITC (single-site model, […]); DSF Tm shift +[…] °C; assay type: binding
[4] = molecular target: T1, PaHisGS (short-form ATP phosphoribosyltransferase catalytic subunit); assay: steady-state kinetics, initial velocity patterns, […] NMR of turnover (no ITC or DSF signal without PRPP); assay type: biochemical
[5] = substrate: O=P(O)(O)OC[C@H]1O[C@H](OP(=O)(O)OP(=O)(O)O)[C@H](O)[C@@H]1O; assay: purified protein, by the assay type; parameters: steady-state substrate saturation kinetics with Mg2+, Michaelis-Menten fit
From the text: (§1) Replacement of Mg^2+ by Mn^2+ is a common strategy in enzymology,[36] having been employed to uncover rate-limiting steps in reactions involving stabilization of phosphate groups.[37] HisGL ATPPRTs have been reported to have their activities either unaltered or decreased by changing the divalent metal in the reaction from the physiological Mg^2+ to Mn^2+, but no mechanistic inference has been drawn.[17],[38] […] Mn^2+ led to 2.6- and 11-fold increases in PaHisGSkcat and kcat/KM^ATP, respectively, as compared with Mg^2+. The change in kcat/KM^ATP was driven in large part by a reduction in KM^ATP. LC-MS analysis of the PaHisGS reaction with Mn^2+ confirmed the same product, PRATP, was being formed (Figure S5).  Figure 5 Steady-state kinetics with Mg^2+ (green) and Mn^2+ (blue). Saturation curves varying either PRPP or ATP concentration with saturating concentration of the cosubstrate for (A and B) PaHisGS and (C and D) PaATPPRT. Data points are mean ± SE, and lines are data fitting to eq 3. Kinetic and DSF data were analyzed by the nonlinear regression function of SigmaPlot 13 (SPSS Inc.). Data points and error bars in graphs are represented as mean ± standard error, and kinetic and equilibrium constants are presented as mean ± fitting error. Initial rate data with varying concentrations of PaHisZ were fitted to eq 1. The concentration of PaATPPRT at any concentration of PaHisGS and PaHisZ was calculated according to eq 2. Substrate saturation data were fitted to eq 3. Inhibition data at fixed substrate concentrations were fitted to eq 4, and competitive inhibition data were fitted to eq 5. Initial velocity patterns were fitted to eq 6, and pre-steady-state kinetics under multiple-turnover conditions was fitted to eq 7. In eqs 1–7, v is the initial rate, Vmax is the maximal velocity, G is the concentration of PaHisGS, Z is the concentration of PaHisZ, KD is the equilibrium dissociation constant, PaATPPRT is the concentration of PaHisGS-PaHisZ complex, S is the concentration of the varying substrate, kcat is the steady-state turnover number, KM is the apparent Michaelis constant, ET is total enzyme concentration, vi is the initial rate in the presence of inhibitor, IC50 is the half-maximal inhibitory concentration, Ki is the inhibitor dissociation constant, A and B are the first and second substrates to bind to the enzyme, respectively, Ka and Kb are their respective Michaelis constants, Kia is the apparent dissociation constant for the complex between enzyme and substrate A when the concentration of B approaches zero, t is time, P(t) is product concentration at time t, A0 is the amplitude of the burst phase, and kburst is the first-order rate constant of product formation in the burst phase. DSF thermal denaturation data were fitted to eq 8,[32] where FU is fraction unfolded, T is the temperature in °C, Tm is the melting temperature, c is the slope of the transition region, and LL and UL are folded and unfolded baselines, respectively. [drawing 1] 1 [drawing 2] 2 [drawing 3] 3 [drawing 4] 4 [drawing 5] 5 [drawing 6] 6 [drawing 7] 7 [drawing 8] 8

[6] = substrate: Nc1ncnc2c1ncn2[C@@H]1O[C@H](COP(=O)(O)OP(=O)(O)OP(=O)(O)O)[C@@H](O)[C@H]1O; assay: purified protein, by the assay type; parameters: steady-state substrate saturation kinetics with Mg2+, Michaelis-Menten fit
From the text: as §1

[7] = substrate: O=P(O)(O)OC[C@H]1O[C@H](OP(=O)(O)OP(=O)(O)O)[C@H](O)[C@@H]1O; assay: purified protein, by the assay type; parameters: steady-state kinetics, spectrophotometric PRATP formation, substrate saturation fitted for KM
Description: as §1, with “For a quantitative comparison of the reactions with ATP and ADP, steady-state kinetic analysis of the reaction with either substrate was carried out (Figure 4) and kinetic parameters are summarized in Table S3. […] Replacement” for “Replacement”, “S5).” for “S5).  Figure 5 Steady-state kinetics with Mg^2+ (green) and Mn^2+ (blue). Saturation curves varying either PRPP or ATP concentration with saturating concentration of the cosubstrate for (A and B) PaHisGS and (C and D) PaATPPRT. Data points are mean ± SE, and lines are data fitting to eq 3.”

[8] = substrate: Nc1ncnc2c1ncn2[C@@H]1O[C@H](COP(=O)(O)OP(=O)(O)OP(=O)(O)O)[C@@H](O)[C@H]1O; assay: purified protein, by the assay type; parameters: steady-state kinetics, spectrophotometric PRATP formation, substrate saturation fitted for KM
Description: as §1, with “For a quantitative comparison of the reactions with ATP and ADP, steady-state kinetic analysis of the reaction with either substrate was carried out (Figure 4) and kinetic parameters are summarized in Table S3. […] Replacement” for “Replacement”, “S5).” for “S5).  Figure 5 Steady-state kinetics with Mg^2+ (green) and Mn^2+ (blue). Saturation curves varying either PRPP or ATP concentration with saturating concentration of the cosubstrate for (A and B) PaHisGS and (C and D) PaATPPRT. Data points are mean ± SE, and lines are data fitting to eq 3.”

Molecule	Km [7] [µM]	kcat [7] [s⁻¹]	kcat/Km [7] [M⁻¹ s⁻¹]	Km [8] [µM]	kcat [8] [s⁻¹]	kcat/Km [8] [M⁻¹ s⁻¹]	also measured
Nc1ncnc2c1ncn2[C@@H]1O[C@H](COP(=O)(O)OP(=O)(O)O)[C@@H](O)[C@H]1O [ADP]							31P NMR of product formation and steady-state kinetics (alternative substrate, w) [1]: establishing that ADP can replace ATP as a substrate for PaHisGS
Nc1ncnc2c1ncn2[C@@H]1O[C@H](COP(=O)(O)O)[C@@H](O)[C@H]1O [AMP]							Ki [2]: 25 ± 5 µM
O=P(O)(O)OC[C@H]1O[C@H](OP(=O)(O)OP(=O)(O)O)[C@H](O)[C@@H]1O [PRPP]							Kd [3]: 12 ± 2 µM
Nc1ncnc2c1ncn2[C@@H]1O[C@H](COP(=O)(O)OP(=O)(O)OP(=O)(O)O)[C@@H](O)[C@H]1O [ATP]							steady-state kinetics, initial velocity patterns, 31P NMR of turnover (no ITC or) [4]: once saturated PaHisGS turns over ATP and ADP just as effectively
PaATPPRT (Psychrobacter arcticus 273-4) (protein, hetero-octamer of four HisGS and four HisZ) MTEVTNSLPTSGLLNEANDEFLGLTLALSKGRILEETMPLLRAAGVELLEDPEASRKLIFPTSNPNVRVLILRASDVPTYVEHGAADFGVAGKDVLLEHGANHVYELLDLKIAQCKLMTAGVKDAPLPNRRLRIATKYVNVARAYFASQGQQVDVIKLYGSMELAPLVGLGDLIVDVVDTGNTLRANGLEARDHICDVSSRLIVNQVSYKRKFALLEPILDSFKNSINSTS	280 ± 60	2.1 ± 0.1	7500 ± 2000	190 ± 30	2.1 ± 0.1	11100 ± 2000	Km [5]: 430 ± 60 µM; kcat [5]: 2.7 ± 0.1 s⁻¹; kcat/Km [5]: 6000 ± 900 M⁻¹ s⁻¹; Km [6]: 720 ± 90 µM; kcat [6]: 2.7 ± 0.1 s⁻¹; kcat/Km [6]: 3800 ± 500 M⁻¹ s⁻¹
PaHisGS (short-form ATP phosphoribosyltransferase catalytic subunit) (Psychrobacter arcticus 273-4) (protein) MTEVTNSLPTSGLLNEANDEFLGLTLALSKGRILEETMPLLRAAGVELLEDPEASRKLIFPTSNPNVRVLILRASDVPTYVEHGAADFGVAGKDVLLEHGANHVYELLDLKIAQCKLMTAGVKDAPLPNRRLRIATKYVNVARAYFASQGQQVDVIKLYGSMELAPLVGLGDLIVDVVDTGNTLRANGLEARDHICDVSSRLIVNQVSYKRKFALLEPILDSFKNSINSTS	600 ± 200	0.39 ± 0.05	700 ± 200	300 ± 50	0.39 ± 0.05	1300	
